The numbers were not newly measured in PMC9528908, which cites them from elsewhere.

One series deals with Asp66 (UniProt position 148, FTKKMDENAKK). Put plainly: stability.
The next series has as its target Glu66 (UniProt position 148, FTKKMEENAKK). As to the kind of experiment: stability.

Regarding “Staphylococcal nuclease (SNase) V66D variant (Staphylococcus aureus; V66D)”, the pKa in the series with Asp66 is listed as 8.45–9.03. “Staphylococcal nuclease (SNase) V66E variant (Staphylococcus aureus; V66E)”: the pKa with Glu66 is recorded as 8.73–9.28.
